Assay [1] deals with LDL receptor (Homo sapiens, UniProt P01130). The following applies: cited from earlier work.
The test system of assay [2] is human RPE cells. The assay is described as follows: Uptake of Alexa Fluor 488-labelled RBP* and IRBP* by RPE cells with and without RAP (fluorescence microscopy, retinyl esters by HPLC). In kind it is cell-based. As to the method:
FIG. 13. Illustrates uptake of RBP- and IRBP-retinol into human RPE. Holo-RBP and IRBP were covalently labeled with a fluorescent probe (Alexa Fluor 488). The labeled proteins (RBP* and IRBP*) were added to either the basal (RBP*) or apical (IRBP*) compartments of the RPE cell culture system. Following a 1 hour incubation at 37° C., the media were removed, the cells were extensively washed and the tissues samples analyzed by fluorescence microscopy.
FIG. 14. Illustrates that RAP inhibits basal uptake of RBP-retinol and apical uptake of IRBP-retinol. Uptake of IRBP* and RBP* by RPE cells was monitored before (panels A and B, respectively) and after (panels D and E, respectively) treatment with the LDL receptor antagonist, RAP. […] To ensure that retinol was also taken into the RPE cells, the cells were washed, collected and analyzed for retinoid content by HPLC. Uptake of retinol into RPE cells results in rapid esterification resulting in retinyl ester formation.

In assay [3] the target is megalin (Homo sapiens, UniProt P98164). The following applies: cited from earlier work.
Chain of megalin (Homo sapiens, UniProt P98164) (P98164 26-4655, species assumed): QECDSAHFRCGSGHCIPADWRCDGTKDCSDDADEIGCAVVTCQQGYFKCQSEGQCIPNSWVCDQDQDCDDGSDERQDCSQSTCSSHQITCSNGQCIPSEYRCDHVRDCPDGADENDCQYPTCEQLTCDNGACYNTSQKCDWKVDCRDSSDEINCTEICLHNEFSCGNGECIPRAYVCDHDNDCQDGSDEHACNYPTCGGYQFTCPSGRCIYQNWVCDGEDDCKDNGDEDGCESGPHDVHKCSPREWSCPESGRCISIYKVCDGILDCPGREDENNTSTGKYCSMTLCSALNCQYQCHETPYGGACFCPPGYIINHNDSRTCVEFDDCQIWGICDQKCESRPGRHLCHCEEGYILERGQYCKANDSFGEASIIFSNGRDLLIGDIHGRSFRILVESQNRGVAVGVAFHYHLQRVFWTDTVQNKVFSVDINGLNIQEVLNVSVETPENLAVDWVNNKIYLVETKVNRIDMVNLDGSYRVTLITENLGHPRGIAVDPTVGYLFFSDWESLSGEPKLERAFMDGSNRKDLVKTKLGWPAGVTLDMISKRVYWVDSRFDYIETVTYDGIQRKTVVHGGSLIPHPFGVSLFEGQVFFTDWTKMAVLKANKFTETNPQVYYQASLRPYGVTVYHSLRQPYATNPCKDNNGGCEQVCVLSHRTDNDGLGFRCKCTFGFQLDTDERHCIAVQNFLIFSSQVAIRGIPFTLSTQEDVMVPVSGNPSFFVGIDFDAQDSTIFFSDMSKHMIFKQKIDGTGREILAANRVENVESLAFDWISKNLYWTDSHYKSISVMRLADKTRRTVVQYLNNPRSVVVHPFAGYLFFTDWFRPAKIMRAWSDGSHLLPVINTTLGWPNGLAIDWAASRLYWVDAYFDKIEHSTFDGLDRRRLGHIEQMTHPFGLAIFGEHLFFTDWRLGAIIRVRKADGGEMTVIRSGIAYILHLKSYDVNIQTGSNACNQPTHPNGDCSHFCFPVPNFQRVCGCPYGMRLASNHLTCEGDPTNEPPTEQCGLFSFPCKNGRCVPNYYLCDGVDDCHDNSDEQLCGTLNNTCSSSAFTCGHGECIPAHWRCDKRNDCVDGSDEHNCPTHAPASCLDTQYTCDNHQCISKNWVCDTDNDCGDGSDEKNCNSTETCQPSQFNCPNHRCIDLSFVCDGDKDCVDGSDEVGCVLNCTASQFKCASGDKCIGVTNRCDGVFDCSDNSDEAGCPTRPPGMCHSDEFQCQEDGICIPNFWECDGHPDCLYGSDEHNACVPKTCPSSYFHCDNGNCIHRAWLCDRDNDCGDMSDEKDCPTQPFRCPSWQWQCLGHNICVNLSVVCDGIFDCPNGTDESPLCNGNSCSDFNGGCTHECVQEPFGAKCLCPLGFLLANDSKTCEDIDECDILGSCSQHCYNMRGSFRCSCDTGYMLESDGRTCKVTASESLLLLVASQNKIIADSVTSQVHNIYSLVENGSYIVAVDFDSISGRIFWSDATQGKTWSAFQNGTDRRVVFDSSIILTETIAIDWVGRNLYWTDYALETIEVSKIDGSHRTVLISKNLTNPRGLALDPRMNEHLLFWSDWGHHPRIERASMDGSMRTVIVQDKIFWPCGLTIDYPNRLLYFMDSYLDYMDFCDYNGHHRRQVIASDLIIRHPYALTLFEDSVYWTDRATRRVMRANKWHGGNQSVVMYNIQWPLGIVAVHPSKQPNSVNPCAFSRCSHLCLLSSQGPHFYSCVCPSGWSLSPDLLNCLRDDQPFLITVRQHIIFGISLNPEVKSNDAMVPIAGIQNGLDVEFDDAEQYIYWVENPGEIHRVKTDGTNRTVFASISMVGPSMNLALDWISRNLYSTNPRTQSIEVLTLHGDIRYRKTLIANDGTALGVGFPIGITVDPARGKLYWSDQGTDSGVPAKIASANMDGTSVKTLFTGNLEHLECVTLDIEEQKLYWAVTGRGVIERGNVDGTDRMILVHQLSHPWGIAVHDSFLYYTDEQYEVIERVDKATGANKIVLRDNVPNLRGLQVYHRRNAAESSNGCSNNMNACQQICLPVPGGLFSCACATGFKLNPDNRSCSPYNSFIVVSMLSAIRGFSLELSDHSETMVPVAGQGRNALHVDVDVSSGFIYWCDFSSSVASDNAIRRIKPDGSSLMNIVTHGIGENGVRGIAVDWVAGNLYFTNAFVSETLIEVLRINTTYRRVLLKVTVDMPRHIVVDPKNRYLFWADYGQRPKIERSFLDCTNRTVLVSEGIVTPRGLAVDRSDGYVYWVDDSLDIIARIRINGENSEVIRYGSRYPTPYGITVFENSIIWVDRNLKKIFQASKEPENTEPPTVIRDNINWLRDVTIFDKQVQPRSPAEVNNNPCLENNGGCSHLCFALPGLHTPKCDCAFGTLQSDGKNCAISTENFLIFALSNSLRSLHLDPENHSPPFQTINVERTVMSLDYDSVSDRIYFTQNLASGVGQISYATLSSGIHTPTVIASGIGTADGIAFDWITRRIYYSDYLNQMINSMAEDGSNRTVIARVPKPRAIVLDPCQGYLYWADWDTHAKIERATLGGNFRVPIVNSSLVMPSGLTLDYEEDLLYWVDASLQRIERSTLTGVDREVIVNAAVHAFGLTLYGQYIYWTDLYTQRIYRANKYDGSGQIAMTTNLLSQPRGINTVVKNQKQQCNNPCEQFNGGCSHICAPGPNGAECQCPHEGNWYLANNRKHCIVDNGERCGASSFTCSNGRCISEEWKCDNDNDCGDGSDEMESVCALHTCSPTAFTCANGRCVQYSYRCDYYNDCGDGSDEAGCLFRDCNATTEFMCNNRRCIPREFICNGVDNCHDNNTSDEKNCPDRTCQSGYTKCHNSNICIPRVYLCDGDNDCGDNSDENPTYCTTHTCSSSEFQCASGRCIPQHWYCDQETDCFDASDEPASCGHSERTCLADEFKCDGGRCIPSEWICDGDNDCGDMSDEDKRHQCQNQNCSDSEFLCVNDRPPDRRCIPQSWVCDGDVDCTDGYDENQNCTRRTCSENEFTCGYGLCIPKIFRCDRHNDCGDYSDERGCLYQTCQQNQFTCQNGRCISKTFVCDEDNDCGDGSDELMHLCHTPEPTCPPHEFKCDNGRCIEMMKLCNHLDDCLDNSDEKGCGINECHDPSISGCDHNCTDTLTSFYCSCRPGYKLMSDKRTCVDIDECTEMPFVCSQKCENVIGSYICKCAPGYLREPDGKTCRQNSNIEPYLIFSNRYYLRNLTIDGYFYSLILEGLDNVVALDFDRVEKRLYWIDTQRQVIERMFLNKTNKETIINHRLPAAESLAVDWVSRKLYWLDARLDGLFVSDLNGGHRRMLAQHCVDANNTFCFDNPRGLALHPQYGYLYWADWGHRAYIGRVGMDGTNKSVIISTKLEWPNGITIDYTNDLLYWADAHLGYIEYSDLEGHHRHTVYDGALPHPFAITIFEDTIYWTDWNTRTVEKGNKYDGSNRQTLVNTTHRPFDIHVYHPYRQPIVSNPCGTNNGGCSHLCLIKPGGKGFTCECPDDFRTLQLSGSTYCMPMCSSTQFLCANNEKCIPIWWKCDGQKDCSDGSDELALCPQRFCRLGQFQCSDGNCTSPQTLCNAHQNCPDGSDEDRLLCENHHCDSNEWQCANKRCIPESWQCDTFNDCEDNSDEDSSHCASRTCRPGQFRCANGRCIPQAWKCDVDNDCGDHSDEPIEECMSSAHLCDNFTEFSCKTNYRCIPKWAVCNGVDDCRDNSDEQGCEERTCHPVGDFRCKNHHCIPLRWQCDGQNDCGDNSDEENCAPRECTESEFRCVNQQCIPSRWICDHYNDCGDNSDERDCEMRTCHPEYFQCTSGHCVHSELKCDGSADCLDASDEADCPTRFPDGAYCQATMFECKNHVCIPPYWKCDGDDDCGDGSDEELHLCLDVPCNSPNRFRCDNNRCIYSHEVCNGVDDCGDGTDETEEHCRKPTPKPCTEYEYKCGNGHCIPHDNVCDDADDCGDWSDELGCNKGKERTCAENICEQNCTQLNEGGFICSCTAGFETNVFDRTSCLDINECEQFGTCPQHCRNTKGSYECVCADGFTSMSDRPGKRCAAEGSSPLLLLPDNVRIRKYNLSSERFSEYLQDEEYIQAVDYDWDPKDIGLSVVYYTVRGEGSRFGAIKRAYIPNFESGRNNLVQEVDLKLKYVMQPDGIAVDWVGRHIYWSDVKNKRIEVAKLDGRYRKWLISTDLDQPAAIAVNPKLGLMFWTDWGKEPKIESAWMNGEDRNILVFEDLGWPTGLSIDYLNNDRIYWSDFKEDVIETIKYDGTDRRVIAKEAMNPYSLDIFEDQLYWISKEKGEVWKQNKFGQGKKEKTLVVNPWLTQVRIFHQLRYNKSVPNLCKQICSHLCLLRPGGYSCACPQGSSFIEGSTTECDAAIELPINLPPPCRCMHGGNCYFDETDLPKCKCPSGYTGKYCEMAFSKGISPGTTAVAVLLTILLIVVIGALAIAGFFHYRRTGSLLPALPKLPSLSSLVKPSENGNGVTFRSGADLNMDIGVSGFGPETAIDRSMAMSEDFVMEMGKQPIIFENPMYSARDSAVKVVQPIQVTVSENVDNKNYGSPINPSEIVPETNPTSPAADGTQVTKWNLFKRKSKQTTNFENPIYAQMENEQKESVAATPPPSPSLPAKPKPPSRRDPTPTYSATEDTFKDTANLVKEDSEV
For assay [4], the system named is human RPE cells. Description: Uptake of RBP-retinol in human RPE cell cultures after antibody or RAP blocking (HPLC of intracellular atRE and atROL). In kind it is cell-based. The following applies: RAP added to basal chamber, 2 hours at 4° C.; RBP-retinol (10 μM) in basal media; vs pre-immune rabbit IgG.
Assay [5] has as its target gp330 (Rattus norvegicus, UniProt P98158). The conditions noted are these: cited from earlier work.
In assay [6] the target is VLDL receptor (Homo sapiens, UniProt P98155). The conditions noted are these: cited from earlier work.
Assay [7] has as its target LRP (Homo sapiens, UniProt Q07954). The following applies: cited from earlier work.
The target of assay [8] is LDL receptors (on human RPE cells). Description: cell-based or functional assay.
The conditions of assay [9]: in vivo; cited from earlier work.
Assay [10] relates to megalin. Description: Megalin protein level in mouse eyecup membrane fractions by immunoblot. It is filed as in vivo. The conditions noted are these: MPR-treated mice compared to age-matched wild-type and abcr knockout mice; two immunoreactive bands. The method, then:
FIG. 12. Illustrates megalin protein level in the eye cup from mice with different serum RBP-retinol levels. LDL receptors function to uptake RBP-retinol into RPE. RBP knockout mouse and MPR-treated mouse have lower serum RBP-retinol level. Expression of megalin in eyecup tissues from these mice were examined by immunoblot. Membrane fractions of mouse eyecups were prepared from wild-type mouse (WT), RBP knockout mouse (RBP−/−), ABCR null (abcr−/−) and MPR-treated mice (MPR). Two immunoreactive bands were detected (indicated by white arrows in the figure).
Preparation of Megalin-enriched Membranes from Whole Tissue—Sucrose density centrifugation was used to separate the membranous constituents from kidney, retina and RPE-eyecup (RPE plus choroid and sclera) samples. Following dissection, tissue samples were homogenized in a buffer containing 0.25 M sucrose (pH 7.5). The homogenates were centrifuged at 27,000×g for 20 min. The supernatant fraction was discarded and the resulting pellet (P1) was homogenized in a buffer containing 0.5% CHAPS. […]
Immunoblot Analyses—Protein samples which were used for immunoblot analyses were resuspended in SDS loading buffer. […] The membrane was washed four times, developed with ChemiGlow West Substrate (Alpha Innotech, San Leandro, Calif.) and then visualized by a luminescence imager (Fluor Chem from Alpha Innotech).

Where [11] appears, read: RAP treatment, fluorescence microscopy.

These results are taken from patent US20090098145A1, “METHODS AND COMPOSITIONS FOR TREATING OPHTHALMIC CONDITIONS VIA MODULATION OF MEGALIN ACTIVITY” (Sirion Therapeutics, Inc., priority 2006, published 2009).

pKd: −log10 of the molar value.

As for “RAP: 39 kDa receptor-associated protein, chaperone and universal ligand binding antagonist of LDL receptor gene family members”, the pKd in assay [1] is 6.30; in assay [5], 8.10; in [6] it was 9.15; in assay [7], 8.40. Also, the “reduction in retinol uptake as measured by retinyl ester content” value in assay [2] (RAP pre-treatment, retinyl esters by HPLC) is on record as approximately 50%. Further, in [2] (setting [11]), the “apical uptake of IRBP*” value is reported as “completely suppressed”. The “basal uptake of RBP*” value in assay [2] (setting [11]) is “completely suppressed”. In [3], the “binding sites occupied on the receptor protein megalin” value is given as “two”. In addition, the “inhibition of RBP-retinol uptake by RAP” value in assay [4] is recorded as 47%.

“receptor-associated protein (RAP) obtained from Oxford Biomedical Research”: in [8], the inhibition of basal RBP-retinol uptake in human RPE cultures (HPLC of intracellular atRE and atROL) after RAP pre-treatment was 47%; the reduction in retinol uptake as measured by retinyl ester content (HPLC) after RAP pre-treatment was found to be 50%.

On to gentamicin [reference compound], for which the “molecules bound per megalin protein” value in assay [3] was 60-100.

On to `COc1ccc(NC(=O)\C=C(C)/C=C/C=C(C)\C=C\C2=C(C)CCCC2(C)C)cc1` (stereo in doubt) [MPR, 4-methoxyphenylretinamide], for which, in assay [9], the “retinol and RBP levels in serum” value is “reduce”. Moreover, the “expression of megalin-immunoreactive proteins in eyecup” value in [10] is given as “reduced expression”.
